Measured values from US20220064322A1.
Read-outs that look alike come from different tables or passages of the source.

Legend:
[1] = target: human CD73 on the cell surface (293T/17-huCD73 cells) (human) (UniProt P21589); test: flow cytometry on 293T/17-huCD73 cells, curve fit
[2] = target: human CD73 on the cell surface (293T/17-huCD73 cells) (human) (UniProt P21589); test: flow cytometry on 293T/17-huCD73 cells
[3] = target: human CD73 on the cell surface (293T/17-huCD73 cells) (human) (UniProt P21589); test: cell-based or functional assay
[4] = target: human CD73 on the cell surface (293T/17-huCD73 cells) (human) (UniProt P21589); test: flow cytometry on 293T/17-huCD73 cells, fluorescently labelled detection antibody, MFI
[5] = target: human CD73 on the cell surface (293T/17-huCD73 cells) (human) (UniProt P21589); test: cell-based or functional assay; remark: listed apart in the source
[6] = target: human CD73 on the cell surface (293T/17-huCD73 cells) (human) (UniProt P21589); test: flow cytometry on 293T/17-human CD73 cells, curve fit
[7] = target: human CD73 on the cell surface (293T/17-huCD73 cells) (human) (UniProt P21589); test: flow cytometry on 293T/17 cells expressing huCD73, APC-labelled goat anti-human antibody, MFI
[8] = target: human CD73 on the cell surface (293T/17-huCD73 cells) (human) (UniProt P21589); test: flow cytometry on 293T/17-human CD73 cells
[9] = target: human CD73 on the cell surface (293T/17-huCD73 cells) (human) (UniProt P21589); test: cell-based or functional assay; remark: listed apart in the source
[10] = target: T1, human CD73 on the cell surface (293T/17-huCD73 cells) (human), P21589; test: cell-based or functional assay
[11] = target: T1, human CD73 on the cell surface …; test: cell-based or functional assay; remark: listed apart in the source
[12] = target: T1, human CD73 on the cell surface …; test: cell-based or functional assay; remark: listed apart in the source

Chain of human CD73 on the cell surface (293T/17-huCD73 cells) (human) (P21589 27-549): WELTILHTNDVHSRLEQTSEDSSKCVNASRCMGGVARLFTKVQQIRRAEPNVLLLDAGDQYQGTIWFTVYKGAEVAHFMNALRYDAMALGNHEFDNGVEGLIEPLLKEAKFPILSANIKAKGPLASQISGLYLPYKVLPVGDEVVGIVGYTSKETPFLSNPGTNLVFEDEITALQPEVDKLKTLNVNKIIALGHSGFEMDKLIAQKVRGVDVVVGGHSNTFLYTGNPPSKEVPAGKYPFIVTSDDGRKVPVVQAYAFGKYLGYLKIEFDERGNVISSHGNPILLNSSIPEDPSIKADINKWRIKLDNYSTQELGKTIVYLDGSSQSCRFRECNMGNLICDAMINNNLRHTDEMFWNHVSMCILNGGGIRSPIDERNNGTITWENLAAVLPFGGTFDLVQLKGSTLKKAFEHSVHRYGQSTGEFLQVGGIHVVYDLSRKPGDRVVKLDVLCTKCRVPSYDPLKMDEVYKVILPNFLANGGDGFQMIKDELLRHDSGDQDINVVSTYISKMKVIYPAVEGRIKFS
T1 sequence (P21589 27-549): as above

B1: 191C3A8B9 (antibody, mouse IgG1, kappa, V domains shown)
VH: QVQLKESGPGLVAPSQSLSITCTVSGFSLTNYGVHWVRQPPGKGLEWLGVIWAGGSTNYNSALMSRLSISKDNSKSQLFLKMNSLQADDTAMYYCARERGSSWGTMDYWGQGTSVTVSS
VL: QIVLTQSPAIMSASPGEKVTMTCSASSRVSYMHWYQQKSGTSPKRWIYDTSQLASGVPARFSGSGSGTSYSLTISSMEAEDAATYYCQQWSSNPYTFGGGTKLEMRR
Bottom (fluorescence intensity) [1]: 2.67 | Top (fluorescence intensity) [1]: 105 | EC50 [2]: 828 pM | IC50, blockade of 5'exonuclease activity on 293T/17-HuCD73 cells [3]: 9 pM | EC50 (read off the curve) [4]: 1000 pM

B2: JB24Chi (antibody, human IgG1, kappa, V domains shown)
VH: QVQLQQSGLELVKPGASVKMSCKASGYTFTDYNMHWVKQSHGKSLEWIGYIKPHNGGTTYNPKFEGKATLTVNKSSSTAYMELRSLTSEDSAVYYCVRCDFLYWYFDVWGTGTTVTVSS
VL: DIVMTQSPAIMSASLGERVTMTCTASSSVSSSYLHWYQQKPGSSPKLWIYSTSNLASGVPGRFSGSGSGTSYSLTISSMEAEDAATYYCHQYHRSPLTFGAGTKLEMKR
Bottom (fluorescence intensity) [1]: -1.47 | Top (fluorescence intensity) [1]: 42 | EC50, reversal of AMP-mediated human CD4+ T cell proliferation inhibition [5]: 3 pM | Bottom [6]: 3.72 fluorescence | Top [6]: 196 fluorescence | EC50 (read off the curve) [7]: 6000 pM | EC50 [2]: 1140 pM | EC50 [8]: 5330 pM | EC50, release of IFN-γ from CD4+ T cells (ELISA of supernatant) [3]: 13.2 pM | EC50, reversal of AMP-mediated human CD4+ T cell proliferation inhibition [3]: 7 pM | IC50, antibody-mediated internalization of CD73 on MDA-MB-231 cells (Fab-ZAP saporin conjugate) [3]: 12 pM | IC50, blockade of 5'exonuclease activity of U87-MG cells [3]: 53 pM | IC50, blockade of 5'exonuclease activity on 293T/17-HuCD73 cells [3]: 31 pM | IC50, blockade of 5'exonuclease activity on 293T/17-human CD73 cells [3]: 6 pM | IC50, blockade of CD73 enzyme activity of CD4+ T cells (CellTiter-Glo) [3]: 9 pM | EC50, release of IFN-γ from CD4+ T cells (ELISA of supernatant) [9]: 6 pM

B3: 66-hIgG2 (antibody)
heavy: QVHLQQSGAELAKPGASVNLSCKASGYAFTSYWMHWVKQRPGQGLEWIGYINPSSGLAKYNQKFKDKATLTTDKSSNTAYMQLSSLTYDDSAVYYCGRWLLSAWFAYWGQGTLVTVSAASTKGPSVFPLAPCSRSTSESTAALGCLVKDYFPEPVTVSWNSGALTSGVHTFPAVLQSSGLYSLSSVVTVPSSNFGTQTYTCNVDHKPSNTKVDKTVERKCCVECPPCPAPPVAGPSVFLFPPKPKDTLMISRTPEVTCVVVDVSHEDPEVQFNWYVDGVEVHNAKTKPREEQFNSTFRVVSVLTVVHQDWLNGKEYKCKVSNKGLPAPIEKTISKTKGQPREPQVYTLPPSREEMTKNQVSLTCLVKGFYPSDIAVEWESNGQPENNYKTTPPMLDSDGSFFLYSKLTVDKSRWQQGNVFSCSVMHEALHNHYTQKSLSLSPGK
light: DIKMTQSPSSIYASLGERVTITCKASQGINTYLSWFQQKPGKSPKTLIYRANILVDGVPSRFSGSGSGQDYSLTINSLEYEDMGIYYCLQYDEFPYTFGGGTKLEIKRTVAAPSVFIFPPSDEQLKSGTASVVCLLNNFYPREAKVQWKVDNALQSGNSQESVTEQDSKDSTYSLSSTLTLSKADYEKHKVYACEVTHQGLSSPVTKSFNRGEC
IC50, antibody-mediated internalization of CD73 on MDA-MB-231 cells (Fab-ZAP saporin conjugate) [10]: 22 pM

B4: 94-hIgG2 (antibody)
heavy: QVQLQQSGAELAKPGASVKLSCKASGYTFTSYWMHWVKQRPGQGLEWIGYINPSSGYTKSNQKFKDKATLTADKSSSTAYMQLSSLTYEDSAVYYCGRWLLSAWFAYWGQGTLVTVSAASTKGPSVFPLAPCSRSTSESTAALGCLVKDYFPEPVTVSWNSGALTSGVHTFPAVLQSSGLYSLSSVVTVPSSNFGTQTYTCNVDHKPSNTKVDKTVERKCCVECPPCPAPPVAGPSVFLFPPKPKDTLMISRTPEVTCVVVDVSHEDPEVQFNWYVDGVEVHNAKTKPREEQFNSTFRVVSVLTVVHQDWLNGKEYKCKVSNKGLPAPIEKTISKTKGQPREPQVYTLPPSREEMTKNQVSLTCLVKGFYPSDIAVEWESNGQPENNYKTTPPMLDSDGSFFLYSKLTVDKSRWQQGNVFSCSVMHEALHNHYTQKSLSLSPGK
light: DIRMTQSPSSMYASLGERVTITCKASQDINTYLSWFQQKPGKSPKSLIYRSNILVDGVPSRFSGSGSGQDYSLTISSLEYEDMGIYYCLQYDDFPYTFGGGTKLEIKRTVAAPSVFIFPPSDEQLKSGTASVVCLLNNFYPREAKVQWKVDNALQSGNSQESVTEQDSKDSTYSLSSTLTLSKADYEKHKVYACEVTHQGLSSPVTKSFNRGEC
IC50, antibody-mediated internalization of CD73 on MDA-MB-231 cells (Fab-ZAP saporin conjugate) [10]: 19 pM

B5: JB24H2L1 (antibody, human IgG1, kappa, V domains shown)
VH: QVQLVQSGAEVKKPGASVKMSCKASGYTFTDYNMHWVRQSPGKSLEWIGYIKPHNAGTTYNPKFEGRATLTVDTSASTAYMELSSLRSEDTAVYYCVRSDFLYWYFDVWGQGTTVTVSS
VL: DIQMTQSPSSLSASVGDRVTITCTASSSVSSSYLHWYQQKPGKAPKLLIYSTSNLASGVPSRFSGSGSGTDFTLTISSLQPEDFATYYCHQYHRSPLTFGAGTKLEIKR
EC50, reversal of AMP-mediated human CD4+ T cell proliferation inhibition [5]: 32 pM | Bottom [6]: 1.64 fluorescence | Top [6]: 82.2 fluorescence | EC50 (read off the curve) [7]: 2000 pM | EC50 [8]: 2400 pM | IC50, blockade of 5'exonuclease activity of U87-MG cells [3]: 474 pM | IC50, blockade of 5'exonuclease activity on 293T/17-human CD73 cells [3]: 42 pM | EC50, release of IFN-γ from CD4+ T cells (ELISA of supernatant) [9]: 2 pM

B6: JB24H3L2 (antibody, human IgG1, kappa, V domains shown)
VH: QVQLVQSGAEVKKPGASVKMSCKASGYTFTDYNMHWVKQSHGKSLEWIGYIKPHNAGTTYNPKFEGRATLTVDTSASTAYMELRSLRSEDTAVYYCVRSDFLYWYFDVWGQGTTVTVSS
VL: DIQMTQSPSSLSASVGDRVTITCTASSSVSSSYLHWYQQKPGSAPKLWIYSTSNLASGVPSRFSGSGSGTDYTLTISSLQPEDFATYYCHQYHRSPLTFGAGTKLEIKR
EC50, reversal of AMP-mediated human CD4+ T cell proliferation inhibition [5]: 22 pM | Bottom [6]: 1.78 fluorescence | Top [6]: 91.7 fluorescence | EC50 (read off the curve) [7]: 3000 pM | EC50 [8]: 3010 pM | IC50, blockade of 5'exonuclease activity of U87-MG cells [3]: 270 pM | IC50, blockade of 5'exonuclease activity on 293T/17-human CD73 cells [3]: 14 pM | EC50, release of IFN-γ from CD4+ T cells (ELISA of supernatant) [9]: 15 pM

B7: JB24H3L3 (antibody, human IgG1, kappa, V domains shown)
VH: QVQLVQSGAEVKKPGASVKMSCKASGYTFTDYNMHWVKQSHGKSLEWIGYIKPHNAGTTYNPKFEGRATLTVDTSASTAYMELRSLRSEDTAVYYCVRSDFLYWYFDVWGQGTTVTVSS
VL: DIVMTQSPSSLSASVGDRVTITCTASSSVSSSYLHWYQQKPGSSPKLWIYSTSNLASGVPGRFSGSGSGTDYTLTISSLQPEDFATYYCHQYHRSPLTFGAGTKLEIKR
EC50, reversal of AMP-mediated human CD4+ T cell proliferation inhibition [5]: 68 pM | Bottom [6]: 0.131 fluorescence | Top [6]: 120 fluorescence | EC50 [8]: 7410 pM | IC50, blockade of 5'exonuclease activity of U87-MG cells [3]: 120 pM | IC50, blockade of 5'exonuclease activity on 293T/17-human CD73 cells [3]: 16 pM | EC50, release of IFN-γ from CD4+ T cells (ELISA of supernatant) [9]: 345 pM

B8: 94H1L3 hIgG2 (antibody)
heavy: QVQLVQSGAEVKKPGASVKVSCKASGYTFTSYWMHWVRQAPGQGLEWMGYINPSSGYTKSNQKFKDRVTMTADTSTSTAYMELSSLRSEDTAVYYCGRWLLSAWFAYWGQGTLVTVSSASTKGPSVFPLAPCSRSTSESTAALGCLVKDYFPEPVTVSWNSGALTSGVHTFPAVLQSSGLYSLSSVVTVPSSNFGTQTYTCNVDHKPSNTKVDKTVERKCCVECPPCPAPPVAGPSVFLFPPKPKDTLMISRTPEVTCVVVDVSHEDPEVQFNWYVDGVEVHNAKTKPREEQFNSTFRVVSVLTVVHQDWLNGKEYKCKVSNKGLPAPIEKTISKTKGQPREPQVYTLPPSREEMTKNQVSLTCLVKGFYPSDIAVEWESNGQPENNYKTTPPMLDSDGSFFLYSKLTVDKSRWQQGNVFSCSVMHEALHNHYTQKSLSLSPGK
light: DIQMTQSPSSLSASVGDRVTITCKASQDINTYLSWFQQKPGKSPKSLIYRSNILVDGVPSRFSGSGSGQDYTLTISSLQPEDFAIYYCLQYDDFPYTFGQGTKLEIKRTVAAPSVFIFPPSDEQLKSGTASVVCLLNNFYPREAKVQWKVDNALQSGNSQESVTEQDSKDSTYSLSSTLTLSKADYEKHKVYACEVTHQGLSSPVTKSFNRGEC
IC50, blockade of 5'exonuclease activity on 293T/17-human CD73 cells [10]: 7 pM | EC50, reversal of AMP-mediated human CD4+ T cell proliferation inhibition [11]: 12 pM | EC50, release of IFN-γ from CD4+ T cells (ELISA of supernatant) [12]: 1 pM

B9: JB94H2L1 (antibody, human IgG1, kappa, V domains shown)
VH: QVQLVQSGAEVKKPGASVKVSCKASGYTFTSYWMHWVRQRPGQGLEWMGYINPSSGYTKSNQKFKDRVTLTADTSTSTAYMELSSLRSEDTAVYYCGRWLLSAWFAYWGQGTLVTVSS
VL: DIQMTQSPSSLSASVGDRVTITCKASQDINTYLSWFQQKPGKAPKSLIYRSNILVDGVPSRFSGSGSGQDFTLTISSLQPEDFAIYYCLQYDDFPYTFGQGTKLEIKR
EC50, reversal of AMP-mediated human CD4+ T cell proliferation inhibition [5]: 32 pM | Bottom [6]: 0.604 fluorescence | Top [6]: 223 fluorescence | EC50 [8]: 9150 pM | IC50, blockade of 5'exonuclease activity of U87-MG cells [3]: 214 pM | IC50, blockade of 5'exonuclease activity on 293T/17-human CD73 cells [3]: 5 pM | EC50, release of IFN-γ from CD4+ T cells (ELISA of supernatant) [9]: 2 pM

B10: JB94H3L3 (antibody, human IgG1, kappa, V domains shown)
VH: QVQLQQSGAEVKKPGASVKLSCKASGYTFTSYWMHWVRQRPGQGLEWIGYINPSSGYTKSNQKFKDRATLTADTSTSTAYMELSSLRSEDTAVYYCGRWLLSAWFAYWGQGTLVTVSS
VL: DIQMTQSPSSLSASVGDRVTITCKASQDINTYLSWFQQKPGKSPKSLIYRSNILVDGVPSRFSGSGSGQDYTLTISSLQPEDFAIYYCLQYDDFPYTFGQGTKLEIKR
EC50, reversal of AMP-mediated human CD4+ T cell proliferation inhibition [5]: 3 pM | Bottom [6]: 1.78 fluorescence | Top [6]: 239 fluorescence | EC50 [8]: 15300 pM | IC50, blockade of 5'exonuclease activity of U87-MG cells [3]: 456 pM | IC50, blockade of 5'exonuclease activity on 293T/17-human CD73 cells [3]: 4 pM | EC50, release of IFN-γ from CD4+ T cells (ELISA of supernatant) [9]: 3 pM
